Experiments:
[1] = target: GST-KIAA1634 PDZ domain 5 (Homo sapiens (Human)), Q5TCQ9; assay: G assay titration, PDZ 1 ug/ml
[2] = target: T1, GST-LIM Protein PDZ domain 1 (Homo sapiens (Human)), Q96HC4; assay: G assay titration, PDZ 1 ug/ml
T1 chain: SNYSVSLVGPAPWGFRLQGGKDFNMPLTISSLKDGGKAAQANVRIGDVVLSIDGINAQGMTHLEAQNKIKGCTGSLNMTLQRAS

[3] = target: T2, GST-MUPP1 PDZ domain 7 (Homo sapiens (Human)), O75970; assay: G assay titration, PDZ 5 ug/ml
T2 chain: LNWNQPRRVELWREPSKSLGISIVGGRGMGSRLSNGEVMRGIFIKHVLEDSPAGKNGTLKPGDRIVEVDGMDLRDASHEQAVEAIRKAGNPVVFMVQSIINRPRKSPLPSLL

[4] = target: T3, GST-FLJ 10324 PDZ domain 1 [GST: P08515]; assay: G assay titration, PDZ 1 ug/ml
T3 chain: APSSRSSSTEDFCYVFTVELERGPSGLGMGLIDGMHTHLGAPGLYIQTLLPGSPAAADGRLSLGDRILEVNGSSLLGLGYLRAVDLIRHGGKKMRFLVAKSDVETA

[5] = target: T4, GST-KIAA1526 PDZ domain 1 (Homo sapiens (Human)), Q9P202; assay: G assay titration, PDZ 5 ug/ml
T4 chain: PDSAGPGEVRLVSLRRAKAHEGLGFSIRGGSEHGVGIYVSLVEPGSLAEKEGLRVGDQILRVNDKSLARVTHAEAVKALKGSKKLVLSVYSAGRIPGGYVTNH

[6] = target: T5, GST-MINT1 PDZ domain 2 (Mus musculus (Mouse)), B2RUJ5; assay: G assay titration, PDZ 5 ug/ml
T5 chain: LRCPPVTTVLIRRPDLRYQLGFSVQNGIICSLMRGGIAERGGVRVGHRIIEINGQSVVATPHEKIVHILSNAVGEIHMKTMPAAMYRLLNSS

[7] = target: T6, GST-ZO-1 PDZ domain 1 (Rattus norvegicus (Rat)), A0A0G2; assay: G assay titration, PDZ 5 ug/ml
T6 chain: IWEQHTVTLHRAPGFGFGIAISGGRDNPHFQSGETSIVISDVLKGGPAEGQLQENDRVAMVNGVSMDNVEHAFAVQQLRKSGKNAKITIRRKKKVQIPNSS

[8] = target: T7, GST-TIP1 PDZ domain 1 (Table 9 insert) (Homo sapiens (Human)), O14907; assay: G assay titration, PDZ 5 ug/ml
T7 chain: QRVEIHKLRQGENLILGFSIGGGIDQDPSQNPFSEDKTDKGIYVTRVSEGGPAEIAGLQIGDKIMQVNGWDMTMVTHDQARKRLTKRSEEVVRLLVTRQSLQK

[9] = target: T8, GST-Outer Membrane PDZ domain 1 (Homo sapiens (Human)), P57105; assay: G assay titration, PDZ 5 ug/ml
T8 chain: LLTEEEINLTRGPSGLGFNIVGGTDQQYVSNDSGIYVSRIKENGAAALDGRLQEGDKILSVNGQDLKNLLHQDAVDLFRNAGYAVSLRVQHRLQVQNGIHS

[10] = target: T9, GST-MUPP1 PDZ domain 11 (Homo sapiens (Human)), O75970; assay: G assay titration, PDZ 5 ug/ml
T9 chain: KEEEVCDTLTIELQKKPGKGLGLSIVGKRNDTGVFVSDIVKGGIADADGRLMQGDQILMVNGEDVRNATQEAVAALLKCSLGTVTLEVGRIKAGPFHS

[11] = target: T10, GST-HEMBA 1003117 PDZ domain 1 (Homo sapiens (Human)), Q96JH8; assay: G assay titration, PDZ 5 ug/ml
T10 chain: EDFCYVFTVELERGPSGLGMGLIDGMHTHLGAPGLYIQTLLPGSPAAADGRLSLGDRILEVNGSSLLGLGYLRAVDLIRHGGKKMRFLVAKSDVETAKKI

[12] = target: T11, GST-PTPL1 PDZ domain 2 (Homo sapiens (Human)), Q12923; assay: G assay titration, PDZ 5 ug/ml
T11 chain: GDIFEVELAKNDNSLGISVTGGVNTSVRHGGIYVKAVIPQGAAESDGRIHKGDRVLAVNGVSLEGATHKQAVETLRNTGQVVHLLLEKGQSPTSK

[13] = target: T12, GST-DLG1 PDZ domain 2 (Homo sapiens), Q12959; assay: G assay titration, PDZ 0.3 ug/ml
T12 chain: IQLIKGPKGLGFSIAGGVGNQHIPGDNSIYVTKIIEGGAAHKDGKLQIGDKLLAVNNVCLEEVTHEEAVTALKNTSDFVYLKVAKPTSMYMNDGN

[14] = target: GST-BAI-1 Associated Protein PDZ domain 4 (Homo sapiens (Human)), Q96QZ7; assay: G assay titration, PDZ 0.3 ug/ml
[15] = target: GST-BAI-1 Associated Protein PDZ domain 2 (Mus musculus (Mouse)), Q6RHR9; assay: G assay titration, PDZ 0.3 ug/ml
Sequence of GST-BAI-1 Associated Protein PDZ domain 2 (Mus musculus (Mouse)), Q6RHR9 (Q6RHR9 455-558): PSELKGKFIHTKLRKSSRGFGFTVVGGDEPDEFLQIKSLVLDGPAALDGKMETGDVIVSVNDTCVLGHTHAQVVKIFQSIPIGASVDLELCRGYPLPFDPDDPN

Sequence of GST-KIAA1634 PDZ domain 5 (Homo sapiens (Human)), Q5TCQ9 (Q5TCQ9 other isoform, or with tags, fused parts or gaps): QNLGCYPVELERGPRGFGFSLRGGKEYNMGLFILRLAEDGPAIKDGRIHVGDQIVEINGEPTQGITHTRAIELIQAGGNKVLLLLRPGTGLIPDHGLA
Sequence of GST-BAI-1 Associated Protein PDZ domain 4 (Homo sapiens (Human)), Q96QZ7 (Q96QZ7 other isoform, or with tags, fused parts or gaps): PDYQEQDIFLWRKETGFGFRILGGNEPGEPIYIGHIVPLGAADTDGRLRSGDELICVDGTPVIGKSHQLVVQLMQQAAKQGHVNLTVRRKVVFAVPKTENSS

Binder: VPGALDYAAFSSALYGESDL (modifications not checked) [a-actinin 2]
- Kd [1]: 2000 nM
- Kd [2]: 2000 nM

Binder: KTMPAAMYRLLTAQEQPVYI (modifications not checked) [MINT-1]
- Kd [3]: 1500 nM
- Kd [4]: 1000 nM

Binder: ILNSIQVMRAQMNQIQSVEV (modifications not checked) [ephrin B2]
- Kd [5]: 5000 nM
- Kd [6]: 3000 nM
- Kd [7]: 6000 nM

Binder: AWDDSARAAGGQGLHVTAL (modifications not checked) [LPAP]
- Kd [8]: 5000 nM

Binder: VGTLLLERVIFPSVKIATLV (modifications not checked) [AdenoE4 typ9]
- Kd [9]: 100 nM
- Kd [10]: 100 nM
- Kd [11]: 300 nM
- Kd [12]: 200 nM
- Kd [13]: 30 nM
- Kd [14]: 100 nM
- Kd [15]: 20 nM

— patent US20050282743A1, “Molecular interactions in cells” (Arbor Vita Corporation, priority 2001, published 2005)
